# From US20220332804A1 (CSL INNOVATION, published 2022)
# T1: human C2 M316A (human, UniProt P06681 21-752)
# T1 sequence: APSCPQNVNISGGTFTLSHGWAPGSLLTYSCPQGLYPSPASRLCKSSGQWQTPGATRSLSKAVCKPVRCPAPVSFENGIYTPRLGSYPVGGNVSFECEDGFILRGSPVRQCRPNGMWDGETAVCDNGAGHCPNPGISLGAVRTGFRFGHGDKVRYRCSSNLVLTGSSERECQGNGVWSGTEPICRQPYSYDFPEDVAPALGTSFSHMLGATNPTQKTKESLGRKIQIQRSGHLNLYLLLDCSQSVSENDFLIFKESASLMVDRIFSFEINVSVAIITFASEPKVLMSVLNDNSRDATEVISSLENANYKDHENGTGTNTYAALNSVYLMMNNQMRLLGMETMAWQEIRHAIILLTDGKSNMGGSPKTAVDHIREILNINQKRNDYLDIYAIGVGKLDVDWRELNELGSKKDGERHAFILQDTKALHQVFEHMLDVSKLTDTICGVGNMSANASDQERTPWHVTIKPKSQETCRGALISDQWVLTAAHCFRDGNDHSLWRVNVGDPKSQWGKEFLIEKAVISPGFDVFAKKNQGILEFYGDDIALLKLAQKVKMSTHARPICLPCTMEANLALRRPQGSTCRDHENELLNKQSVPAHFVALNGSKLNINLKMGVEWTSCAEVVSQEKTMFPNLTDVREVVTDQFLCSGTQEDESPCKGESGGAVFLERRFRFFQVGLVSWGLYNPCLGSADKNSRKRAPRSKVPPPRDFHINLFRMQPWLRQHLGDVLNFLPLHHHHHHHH
# T2: human C2 F437A (human, UniProt P06681 21-752)
# T2 sequence: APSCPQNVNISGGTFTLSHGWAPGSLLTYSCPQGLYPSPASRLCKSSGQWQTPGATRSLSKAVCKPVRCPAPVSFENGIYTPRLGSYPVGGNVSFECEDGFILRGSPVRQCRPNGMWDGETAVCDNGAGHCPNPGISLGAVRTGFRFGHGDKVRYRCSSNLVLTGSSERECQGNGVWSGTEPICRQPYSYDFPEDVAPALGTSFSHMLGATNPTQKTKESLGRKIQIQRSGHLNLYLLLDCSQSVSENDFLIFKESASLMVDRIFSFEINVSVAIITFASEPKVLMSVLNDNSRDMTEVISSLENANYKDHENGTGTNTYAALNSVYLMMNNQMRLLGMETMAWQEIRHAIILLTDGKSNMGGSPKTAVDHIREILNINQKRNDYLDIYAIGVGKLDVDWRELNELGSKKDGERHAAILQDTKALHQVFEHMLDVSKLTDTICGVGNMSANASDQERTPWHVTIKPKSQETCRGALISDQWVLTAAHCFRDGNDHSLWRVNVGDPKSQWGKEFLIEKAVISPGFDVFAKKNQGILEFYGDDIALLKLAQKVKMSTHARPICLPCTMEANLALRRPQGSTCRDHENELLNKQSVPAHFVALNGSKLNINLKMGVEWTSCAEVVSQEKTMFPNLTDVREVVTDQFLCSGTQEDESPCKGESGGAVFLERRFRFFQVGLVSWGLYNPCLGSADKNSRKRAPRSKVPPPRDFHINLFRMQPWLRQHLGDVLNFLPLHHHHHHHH
# T3: human C2 S708A (human, UniProt P06681 21-752)
# T3 sequence: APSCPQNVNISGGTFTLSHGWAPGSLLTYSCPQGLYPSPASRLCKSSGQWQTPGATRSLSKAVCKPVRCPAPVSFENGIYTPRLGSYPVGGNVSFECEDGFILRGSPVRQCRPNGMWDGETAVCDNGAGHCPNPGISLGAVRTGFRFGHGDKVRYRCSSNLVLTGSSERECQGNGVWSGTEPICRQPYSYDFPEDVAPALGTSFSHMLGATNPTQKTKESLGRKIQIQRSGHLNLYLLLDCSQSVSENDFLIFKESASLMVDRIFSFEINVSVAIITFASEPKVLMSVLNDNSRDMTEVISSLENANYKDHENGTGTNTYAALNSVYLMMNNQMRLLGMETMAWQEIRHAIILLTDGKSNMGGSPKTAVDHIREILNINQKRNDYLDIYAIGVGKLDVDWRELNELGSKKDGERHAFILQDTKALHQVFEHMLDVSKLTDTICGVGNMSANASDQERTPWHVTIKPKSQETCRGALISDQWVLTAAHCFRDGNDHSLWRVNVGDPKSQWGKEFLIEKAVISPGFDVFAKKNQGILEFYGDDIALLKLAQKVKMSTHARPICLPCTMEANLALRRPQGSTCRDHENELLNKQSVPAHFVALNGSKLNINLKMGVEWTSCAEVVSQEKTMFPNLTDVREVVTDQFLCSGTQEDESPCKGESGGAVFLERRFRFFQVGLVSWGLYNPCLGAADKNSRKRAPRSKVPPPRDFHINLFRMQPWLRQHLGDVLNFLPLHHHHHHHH
# T4: human C2 G427A (human, UniProt P06681 21-752)
# T4 sequence: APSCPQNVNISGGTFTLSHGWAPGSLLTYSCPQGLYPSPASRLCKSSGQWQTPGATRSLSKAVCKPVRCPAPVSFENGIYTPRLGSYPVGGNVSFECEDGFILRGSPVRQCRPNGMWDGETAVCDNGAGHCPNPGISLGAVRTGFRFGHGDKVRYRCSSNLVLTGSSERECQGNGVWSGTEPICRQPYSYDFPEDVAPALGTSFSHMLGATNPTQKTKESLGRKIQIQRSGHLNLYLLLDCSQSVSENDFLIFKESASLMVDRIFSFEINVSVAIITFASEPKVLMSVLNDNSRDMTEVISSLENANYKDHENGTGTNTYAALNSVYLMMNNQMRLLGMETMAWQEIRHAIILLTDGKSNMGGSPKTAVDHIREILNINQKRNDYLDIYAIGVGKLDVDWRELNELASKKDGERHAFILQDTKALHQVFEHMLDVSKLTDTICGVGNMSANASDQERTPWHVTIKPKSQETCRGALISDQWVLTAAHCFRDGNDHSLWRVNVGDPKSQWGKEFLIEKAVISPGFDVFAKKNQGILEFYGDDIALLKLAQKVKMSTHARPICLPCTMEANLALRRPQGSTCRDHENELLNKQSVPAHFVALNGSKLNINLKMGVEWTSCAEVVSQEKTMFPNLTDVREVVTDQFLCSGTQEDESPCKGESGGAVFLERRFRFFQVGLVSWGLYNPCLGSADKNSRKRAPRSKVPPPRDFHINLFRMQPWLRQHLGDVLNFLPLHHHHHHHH
# B1: RF16-226 (antibody, human IgG4 S228P, lambda)
# heavy: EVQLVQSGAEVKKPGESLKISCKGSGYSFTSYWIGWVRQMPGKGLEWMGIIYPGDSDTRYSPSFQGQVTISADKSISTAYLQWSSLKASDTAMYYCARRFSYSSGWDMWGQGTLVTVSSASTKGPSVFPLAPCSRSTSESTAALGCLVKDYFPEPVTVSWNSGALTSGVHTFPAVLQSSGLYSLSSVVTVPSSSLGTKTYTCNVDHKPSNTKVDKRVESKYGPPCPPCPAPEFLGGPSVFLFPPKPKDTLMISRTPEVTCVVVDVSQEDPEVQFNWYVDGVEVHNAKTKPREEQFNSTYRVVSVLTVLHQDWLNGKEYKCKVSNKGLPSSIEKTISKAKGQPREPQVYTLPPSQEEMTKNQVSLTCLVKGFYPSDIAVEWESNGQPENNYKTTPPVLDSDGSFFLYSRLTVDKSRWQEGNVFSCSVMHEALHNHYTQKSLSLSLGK
# light: SYELTQPPSVSVSPGQTARITCSGDALTSKYVAWYQQKSGLAPLLVIYEDTRRPSGIPAKFSGSSSGSVATLTISGAHGDDEADYYCYSTDASGHQRVFGGGTKLTVLSQPKAAPSVTLFPPSSEELQANKATLVCLISDFYPGAVTVAWKADGSPVKAGVETTKPSKQSNNKYAASSYLSLTPEQWKSHRSYSCQVTHEGSTVEKTVAPTECS
# notes: pH-dependent anti-C2 antibody from a phage display library; also called WT
# Key:
# Experiment in all cases: SPR, antibody captured, C2 as analyte;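 further: biacore SPR at 37 °C, anti-C2 mAbs captured via goat anti-human IgG on CM5 chips, double-referenced sensorgrams fit to a 1:1 kinetic or steady-state model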
# human C2 M316A = target: T1, human C2 M316A
# Description: (§1) Surface plasmon resonance (SPR, Biacore) was used for all binding affinity analyses. In brief, goat anti-human IgG was directly immobilised onto the carboxymethyl dextran surface of CM5 sensorchips to approximately 12,000 RU using standard NHS/EDC chemistry at pH 5. The immobilised antibody surface was pre-conditioned with ten injections of polyclonal human IgG (Privigen 60 s) prepared at 1 μg/mL. Ligands (anti-C2 mAbs) were captured at the beginning of each cycle as described below. An adjacent spot or flow cell in which only Polyclonal IgG was capture was used as a reference surface. The goat anti-human IgG Fc antibody surface was regenerate in 100 mM H3PO4, injected for 45 seconds at the end of each cycle. Experiments were performed at 37° C. and the flow rate of each experiment was kept constant at 30 μL/min.
# (§2) Sensogram data was double-referenced against a reference anti-IgG surface (i.e. minus anti-C2 mAb) and blank buffer injections obtained within each experiment. The binding data was fit to 1:1 (kinetic or steady-state) model using local Rmax and null refraction index (RI=0) when appropriate. Buffers and solutions were filtered (0.22 μm) prior to use.
# human C2 F437A = target: T2, human C2 F437A
# Description: as §1, §2
# human C2 S708A = target: T3, human C2 S708A
# Description: as §1, §2
# human C2 G427A = target: T4, human C2 G427A
# Description: as §1, §2
binder,measurement,setting,value
B1,Kd,human C2 M316A,12.3 nM
same,Kd,human C2 F437A,260 nM
same,Kd,human C2 S708A,21.1 nM
same,Kd,human C2 G427A,4.2 nM
